Source: patent CN116284353A

Target: 柯萨奇病毒A16型病毒样颗粒 (Coxsackievirus A16) (UniProt Q65900)
Test: sandwich ELISA: rabbit anti-CV A16 VLP polyclonal serum (1:8000) as capture, CV A16 VLP titrated, mAb 10 ng/μL as detector; positive when OD450nm>0.15

UniProt Q65900, sequence (Q65900 2-862): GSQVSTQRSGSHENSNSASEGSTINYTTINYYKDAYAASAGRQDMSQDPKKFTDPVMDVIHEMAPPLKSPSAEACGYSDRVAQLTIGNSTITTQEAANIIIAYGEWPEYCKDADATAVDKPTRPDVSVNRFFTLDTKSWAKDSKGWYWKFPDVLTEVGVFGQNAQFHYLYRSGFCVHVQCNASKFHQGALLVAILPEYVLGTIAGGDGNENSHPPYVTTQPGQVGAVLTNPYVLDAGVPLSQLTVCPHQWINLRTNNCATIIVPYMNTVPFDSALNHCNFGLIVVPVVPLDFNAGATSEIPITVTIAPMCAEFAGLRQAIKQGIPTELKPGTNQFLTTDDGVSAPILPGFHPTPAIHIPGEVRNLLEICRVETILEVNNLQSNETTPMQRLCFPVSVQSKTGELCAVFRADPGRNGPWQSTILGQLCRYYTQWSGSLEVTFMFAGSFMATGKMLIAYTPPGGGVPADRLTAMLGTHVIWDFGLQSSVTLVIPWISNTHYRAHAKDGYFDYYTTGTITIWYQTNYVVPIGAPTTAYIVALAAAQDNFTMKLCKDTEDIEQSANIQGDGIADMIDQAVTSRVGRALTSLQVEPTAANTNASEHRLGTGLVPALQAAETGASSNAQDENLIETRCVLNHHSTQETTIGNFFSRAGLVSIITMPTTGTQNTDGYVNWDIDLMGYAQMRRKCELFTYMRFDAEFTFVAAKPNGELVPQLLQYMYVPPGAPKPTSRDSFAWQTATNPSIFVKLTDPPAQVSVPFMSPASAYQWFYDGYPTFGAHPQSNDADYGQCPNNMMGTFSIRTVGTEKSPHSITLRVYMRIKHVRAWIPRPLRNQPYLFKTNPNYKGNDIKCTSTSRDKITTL

B1: 单克隆抗体3H5 (antibody, mouse IgG1, kappa, V domains shown)
VH: EVKLEESGGGLVQPGGSMKLSCVGSGFTFSNYWMNWVRQSPDKGLEWVAEIRSKSNNYATHYAESVKGRLTISRDDSKSGVYLQMNNLRPEDTGIYYCTRSGAYWGQGTLVTVSA
VL: QIVLTQSPAIMSASPGEKVTMTCSASSSVSYIYWYQQKPGSSPRLLIYDTTRLASGVPVRFSGSGSGTSYSLTISRMEAEDAATYYCQHWNSYPFTFGSGTKLEIKR
最低检出限度: 62.5 ng/mL
